Measurements published in the supplement of paper PMC6757056.
± gives the standard deviation of the averaged measurements.

B1: library; a variant is named by its letters at N, in order (parent)
chain: GCUGUCACCGAGAAACUGUGAAGUAUAUCUUAAACCUGGGCACUUAAAAGAUAUAUGGAGUUAGUAGUGCAACCUGCUCGGUCUGAUGAGUCCNNNNNNGGACGAAACAGC

Key:
[1] = variants of: B1; assay: normalized RNA/DNA level without ligand (relative to sTRSVctl = 100) (log10 (% of sTRSVctl)); HEK293T; ligand: cyclic di-GMP (c-di-GMP-II aptamer); higher = less ribozyme self-cleavage, higher mRNA level; conditions: reporter: mCherry (pCS4076), ligand present: no
In short: (§1)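 HEK293T cells received ligand, where used, 1 h before being transfected with 4 µg per 6-well well of library plasmids encoding reporter-linked ribozyme switches. After 72 h, RNA was extracted with EDTA and sequenced. RNA level was derived from RNA reads per DNA read, normalized to a spiked-in non-cleaving sequence or the top sequences, then scaled and log-transformed. Values were ×100 then log10, the top set was 25 sequences, and the minimum was 100 DNA reads.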

[2] = variants of: B1; assay: normalized RNA/DNA level with ligand (relative to sTRSVctl = 100) (log10 (% of sTRSVctl)); HEK293T; ligand: cyclic di-GMP (c-di-GMP-II aptamer); ligand concentration (+) RNA-Seq: 1 mM; higher = less ribozyme self-cleavage, higher mRNA level; conditions: reporter: mCherry (pCS4076), ligand present: yes
In short: as §1

Variant	normalized RNA/DNA level without ligand (log10) [1]	normalized RNA/DNA level with ligand (log10) [2]
GUGGUU	1.617 ± 0.0057	1.78 ± 0.13
UUGCUC	1.788 ± 0.015	1.86 ± 0.071
UUGCUU	1.727 ± 0.0027	1.88 ± 0.12
UUGCUA	1.62 ± 0.052	1.81 ± 0.07
UUGCUG	1.7171 ± 3.9e-05	1.84 ± 0.14
AUUCUG	1.68 ± 0.071	1.81 ± 0.11
AUUCUA	1.595 ± 0.0027	1.78 ± 0.13
AUUCUU	1.72 ± 0.052	1.88 ± 0.11
AUUCUC	1.806 ± 0.0079	1.89 ± 0.1
CUGGAC	1.63 ± 0.018	1.77 ± 0.096
CUGGAG	1.604 ± 0.006	1.77 ± 0.099
CUGGAU	1.53 ± 0.094	1.73 ± 0.053
CUGUCG	1.73 ± 0.047	1.84 ± 0.14
CUGUCU	1.57 ± 0.086	1.76 ± 0.067
CUGUCC	1.786 ± 0.0046	1.92 ± 0.12
CUGCUA	1.4 ± 0.025	1.57 ± 0.091
CUGCUG	1.63 ± 0.055	1.79 ± 0.11
CUGCUC	1.7 ± 0.0046	1.83 ± 0.14
CUGCUU	1.6 ± 0.06	1.76 ± 0.09

Variant	normalized RNA/DNA level without ligand (log10) [1]	normalized RNA/DNA level with ligand (log10) [2]
AUUAUU	1.63 ± 0.042	1.79 ± 0.1
AUUAUG	1.58 ± 0.022	1.77 ± 0.1
AUUAUA	1.58 ± 0.03	1.74 ± 0.095
GUGCGU	1.69 ± 0.052	1.84 ± 0.14
GUGCGG	1.86 ± 0.043	1.92 ± 0.08
GUGCGA	1.6 ± 0.071	1.73 ± 0.1
GUGCGC	1.74 ± 0.057	1.88 ± 0.056
CUUCCA	1.61 ± 0.089	1.78 ± 0.085
CUUCCU	1.64 ± 0.025	1.8 ± 0.084
CUUCCG	1.761 ± 0.017	1.89 ± 0.1
CUUCCC	1.8 ± 0.024	1.88 ± 0.14
UUGGCA	1.76 ± 0.035	1.83 ± 0.037
UUGGCC	1.81 ± 0.031	1.88 ± 0.097
UUGGCG	1.85 ± 0.022	1.94 ± 0.11
GUUGAA	1.44 ± 0.083	1.65 ± 0.12
CUUCAG	1.732 ± 0.0075	1.81 ± 0.067
CUUCAC	1.734 ± 0.0076	1.86 ± 0.088
UUGGGA	1.57 ± 0.1	1.72 ± 0.1
UUGGGU	1.68 ± 0.024	1.84 ± 0.088

Variant	normalized RNA/DNA level without ligand (log10) [1]	normalized RNA/DNA level with ligand (log10) [2]
UUGGGC	1.72 ± 0.023	1.84 ± 0.091
UUGGGG	1.61 ± 0.057	1.78 ± 0.094
AUGUGG	1.59 ± 0.051	1.72 ± 0.081
AUGUGA	1.44 ± 0.082	1.65 ± 0.11
AUGUGC	1.6033 ± 0.00051	1.77 ± 0.14
CUGGUG	1.39 ± 0.017	1.58 ± 0.16
CUGGUC	1.68 ± 0.032	1.8 ± 0.14
CUGGUU	1.67 ± 0.025	1.83 ± 0.08
CUGGUA	1.38 ± 0.086	1.59 ± 0.076
GUGUGA	1.41 ± 0.11	1.67 ± 0.084
GUGUGU	1.595 ± 0.003	1.77 ± 0.12
GUGUGG	1.74 ± 0.041	1.86 ± 0.11
UUUAUU	1.72 ± 0.084	1.88 ± 0.15
UUUAUA	1.7 ± 0.035	1.84 ± 0.1
UUUAUG	1.707 ± 0.0064	1.84 ± 0.11
UUUAUC	1.74 ± 0.056	1.83 ± 0.12
UUGUUG	1.67 ± 0.053	1.86 ± 0.13
UUGUUU	1.78 ± 0.041	1.92 ± 0.085
UUGUUA	1.64 ± 0.022	1.81 ± 0.12
